Measured values: the supplement of paper PMC10567573
± gives the standard deviation.

Test: protein stability index of a GFP-peptide fusion (GPS, HEK-293T) (PSI 1-6); higher = more stable
Conditions: c terminus: a fixed tail appended
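Note: 24-mer peptide tiles fused after GFP, lentivirally expressed, FACS-sorted into six equal bins by GFP/DsRed ratio, decoded by Illumina sequencing, PSI is the read-weighted mean bin number.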

Sequence	protein stability index (treatment: DMSO)	protein stability index (treatment: MLN4924 1 uM, 8 h)
LTDFYPVRRSSRKSKAELQSEERK [KMT5A]	3.04 ± 0.39	3.49 ± 0.9
LTKDEAAAHLKLTSIEEGYERSFI [IQUB]	3.58 ± 0.39	3.43 ± 0.16
LTLDLPTAPLYKDEKEQLIIPQVP [USP39]	3.91 ± 0.33	3.92 ± 0.25
LVAGIGFYQHLLLYIQSHYQLELQ [SMG5]	2.99 ± 0.5	3.11 ± 0.43
LVFLITAILVKVQLDALPFFVITM [SLC29A1]	3.06 ± 0.24	2.88 ± 0.39
LVMPIEDQLTQIMRTGQNTWESKN [PCMTD1]	3.13 ± 0.13	3.2 ± 0.38
LYPFQIHSIALSTFASLIGPFGGF [CDS1]	3.36 ± 0.62	3.09 ± 0.36
LYVVIPTRRSTAEAFQIVLSHLLG [SPNS1]	2.72 ± 0.4	2.71 ± 0.33
LYWTKWYNNQSLGHGSHSFIYYEN [PKD2L1]	2.53 ± 0.68	2.41 ± 0.47
MADVINVSVNLEAFSQAISAIQAL [MED27]	2.38 ± 0.72	2.23 ± 0.17
MADWARAQSPGAVEEILDRENKRM [BET1L]	4.71 ± 0.35	4.75 ± 0.21
MASPCSAMAYHHDSRRIFVGQDNG [WDFY1]	2.64 ± 0.18	2.67 ± 0.11
MASQSQGIQQLLQAEKRAAEKVSE [ATP6V1G1]	4.93 ± 0.36	5.385 ± 0.052
MDETSPLVSPERAQPPDYTFPSGS [PI4K2A]	4.91 ± 0.15	4.78 ± 0.39
MDRFDCQYLMATFVHVYITSFIRG [CDS1]	3.01 ± 0.56	3.67 ± 0.73
MDRRSRAQQWRRARHNYNDLCPPI [GNAS]	2.92 ± 0.19	3.13 ± 0.3
MEAADASRSNGSSPEARDARSPSG [TRIM29]	5.29 ± 0.18	5.5 ± 0.091
MEALDLQPGLSFLNLGSGTGYLSS [PCMTD2]	3.4 ± 0.36	3.45 ± 0.4
MGERKGVNKYYPPDFNPEKHGSLN [YJU2B]	4.11 ± 0.4	4.18 ± 0.12
MGSASPGLSSVSPSHLLLPPDTVS [SPDEF]	4.28 ± 0.27	4.2 ± 0.23
MINLRRLLLSHIHASSYISPEKEE [PRAME]	2.41 ± 0.26	2.63 ± 0.57
MKKGGIFSAEFLKVFIPSLFLSHV [BNIP3L]	3 ± 1.1	2.51 ± 0.56

Sequence	protein stability index (treatment: DMSO)	protein stability index (treatment: MLN4924 1 uM, 8 h)
MLPGRTDNAVKNHWNSTIKRKVDT [MYBL2]	3.61 ± 0.17	4.09 ± 0.24
MLQRAIAYQHSGHLESKDINQEEL [C10orf62]	3.96 ± 0.19	4.14 ± 0.24
MMDSRTSQQLQLIDEQDSYIQSRA [STX5]	4.77 ± 0.15	4.74 ± 0.076
MNLELLESFGQNYPEEADGTLDCI [RBBP5]	4.77 ± 0.25	4.89 ± 0.12
MNNAVRNLQELLELDSSSSLCVLV [CEP70]	2.36 ± 0.29	2.32 ± 0.19
MPAAGLAVQLRHAWNPEDRSLNVF [SPSB4]	2.75 ± 0.14	2.95 ± 0.26
MPATPSLKVVHELPACTLCAGPLE [TRIM15]	3.95 ± 0.28	4.03 ± 0.2
MSCRDRTQEFLSACKSLQTRQNGI [STX5]	3.1 ± 0.21	3.1 ± 0.36
MSEADGLRQRRPLRPQVVTDDDGQ [APMAP]	5.36 ± 0.28	5.37 ± 0.33
MSKLLKRQNDILQVVSQGWKYFKG [CD207]	2.28 ± 0.36	2.28 ± 0.082
MSLEPQNGTYAGPAPAFQPFFFTG [ANKRD40]	2.29 ± 0.35	2.15 ± 0.31
MSTKESDFLCLLGVSYTFDNEDSE [MIA2]	2.92 ± 0.14	2.91 ± 0.29
MTSLTQRSSGLVQRRTEASRNAAD [GOLPH3]	4.89 ± 0.27	5.03 ± 0.19
MTVKPAKAASLARNLAKRRRTYLG [RSPH3]	3.16 ± 0.3	3.6 ± 0.3
MVGGGQPCGPNMSEVSCKKRDDYL [DCTD]	4.11 ± 0.33	4.21 ± 0.19
MWKFVSPLCMAVLTTASIIQLGVT [SLC6A17]	3.21 ± 0.58	2.87 ± 0.49
MYKLSSEQFHEAASKMESTIKPRR [CHCHD6]	3.72 ± 0.53	4.07 ± 0.64
MYRWKLSSHEPCSATCTTGVMSAY [ADAMTSL2]	2.24 ± 0.74	2.2 ± 0.73
NALSKSSAPPITPECRQVLKTSRK [CHGB]	4.68 ± 0.22	4.77 ± 0.15
NCRLQSPYFSPSASFHHKLHHKRL [CBY2]	2.32 ± 0.24	2.33 ± 0.16
NEDPLVLLAWRCTKLSLLAIHGYT [FBXO33]	3.05 ± 0.33	2.91 ± 0.65
NEKEKALQAQVQYQQQHEQQKKDL [SASS6]	5.66 ± 0.2	5.48 ± 0.5
